Laboratory results reported in PMC3392526.
Where two headings read alike, the source gives them in different places.

What was measured:
Experiment in all cases: crystal structure
[1] = biological target: T1, ALKBH2-dN55 crosslinking mutant (Homo sapiens, UniProt Q6NS38 56-261, C67S;C165S;G169C;C192S)
T1 sequence: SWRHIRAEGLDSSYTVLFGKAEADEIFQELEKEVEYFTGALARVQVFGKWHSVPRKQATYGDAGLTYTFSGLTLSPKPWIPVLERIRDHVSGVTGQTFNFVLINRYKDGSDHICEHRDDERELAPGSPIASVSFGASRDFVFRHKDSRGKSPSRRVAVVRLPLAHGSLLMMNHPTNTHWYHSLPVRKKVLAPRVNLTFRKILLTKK

[2] = biological target: T1, ALKBH2-dN55 crosslinking mutant; remark: listed apart in the source
[3] = biological target: T1, ALKBH2-dN55 crosslinking mutant; remark: listed apart in the source
[4] = biological target: T1, ALKBH2-dN55 crosslinking mutant; remark: listed apart in the source

B1: CG DNA (dsDNA)
DNA 1: CTGTCATCACTGCG
DNA 2: TCGCAGTGATGACA
modifications: C* (position 10 of strand 1): disulfide crosslinking cytosine
**Q.** Does B1 bind [1]?
**A.** Result: binds

B2: AT DNA (dsDNA)
DNA 1: ATGTATAACTGCG
DNA 2: TCGCAGTTATACA
modifications: C* (position 9 of strand 1): disulfide crosslinking cytosine
**Q.** Does B2 bind [2]?
**A.** Result: binds

B3: CI DNA (dsDNA)
DNA 1: ATGTATCACTGCG
DNA 2: TCGCAGTGATACA
modifications: C* (position 9 of strand 1): disulfide crosslinking cytosine; strand 2 position 8 is inosine (written G)
**Q.** Does B3 bind [3]?
**A.** Result: binds

B4: 3-meC DNA (dsDNA)
DNA 1: CTGTCTCACTGCG
DNA 2: TCGCAGTGAGACA
modifications: 3-methylcytosine at position 7 of strand 1 (written C); C* (position 9): disulfide crosslinking cytosine
**Q.** Does B4 bind [4]?
**A.** Result: binds

B5: eA DNA (dsDNA)
DNA 1: CTGTCAAACTGCG
DNA 2: TCGCAGTTAGACA
modifications: 1,N6-ethenoadenine at position 7 of strand 1 (written A); no C* printed in this strand
**Q.** Does B5 bind [4]?
**A.** Result: binds
